Data from paper PMC10992996.

Biological target: Human canonical CRB1 (Crumbs homolog 1) (UniProt P82279)
Assay: co-IP (FLAG-IP) and Western blot quantification
Settings: co-transfected in HEK293T cells; three biological replicates; parent: est. 1.0; read off a plot

Human canonical CRB1 (Crumbs homolog 1), sequence (P82279 26-1406): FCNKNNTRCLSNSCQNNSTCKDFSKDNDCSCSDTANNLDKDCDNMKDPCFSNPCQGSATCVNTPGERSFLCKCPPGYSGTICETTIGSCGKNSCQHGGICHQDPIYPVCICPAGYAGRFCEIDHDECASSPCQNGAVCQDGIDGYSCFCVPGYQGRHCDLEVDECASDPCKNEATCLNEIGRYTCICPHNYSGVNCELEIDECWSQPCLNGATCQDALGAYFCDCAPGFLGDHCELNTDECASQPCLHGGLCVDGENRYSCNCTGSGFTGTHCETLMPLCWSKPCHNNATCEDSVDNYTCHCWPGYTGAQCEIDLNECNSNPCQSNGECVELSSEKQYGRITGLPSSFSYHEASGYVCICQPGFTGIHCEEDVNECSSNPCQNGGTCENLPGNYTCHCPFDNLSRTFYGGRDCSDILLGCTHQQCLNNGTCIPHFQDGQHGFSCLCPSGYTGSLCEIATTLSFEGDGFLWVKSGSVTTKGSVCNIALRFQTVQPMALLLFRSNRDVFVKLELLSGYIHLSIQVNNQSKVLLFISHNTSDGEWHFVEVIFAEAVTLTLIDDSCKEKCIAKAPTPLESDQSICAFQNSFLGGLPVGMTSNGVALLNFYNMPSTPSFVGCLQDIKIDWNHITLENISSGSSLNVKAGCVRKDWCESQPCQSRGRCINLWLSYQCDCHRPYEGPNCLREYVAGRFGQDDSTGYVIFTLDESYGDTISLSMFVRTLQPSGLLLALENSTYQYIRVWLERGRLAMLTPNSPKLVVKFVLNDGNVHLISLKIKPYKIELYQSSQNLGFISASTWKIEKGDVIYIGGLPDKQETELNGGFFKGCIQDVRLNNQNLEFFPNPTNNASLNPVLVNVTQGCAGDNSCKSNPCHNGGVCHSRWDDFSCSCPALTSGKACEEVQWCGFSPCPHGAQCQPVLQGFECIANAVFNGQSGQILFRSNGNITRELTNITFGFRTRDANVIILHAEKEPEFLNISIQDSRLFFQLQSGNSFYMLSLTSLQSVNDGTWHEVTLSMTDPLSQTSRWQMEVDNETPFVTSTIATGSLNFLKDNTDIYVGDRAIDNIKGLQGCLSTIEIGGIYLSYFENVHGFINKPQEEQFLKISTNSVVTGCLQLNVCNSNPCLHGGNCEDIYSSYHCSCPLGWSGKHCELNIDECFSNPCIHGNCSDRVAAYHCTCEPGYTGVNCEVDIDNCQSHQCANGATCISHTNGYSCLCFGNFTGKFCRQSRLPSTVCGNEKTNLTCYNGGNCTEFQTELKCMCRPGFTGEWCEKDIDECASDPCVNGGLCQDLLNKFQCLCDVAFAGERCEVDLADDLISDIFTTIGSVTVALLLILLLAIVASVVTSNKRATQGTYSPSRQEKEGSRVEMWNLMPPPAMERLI

“Human canonical CRB2 (Crumbs homolog 2) (from UniProt Q5IJ48-1) p.C620S” and “Human canonical CRB2 (Crumbs homolog 2) (from UniProt Q5IJ48-1) p.C629S” are the same in ratio to parent: 1.1 for the first, 1.1 for the second.

Going from “Human canonical CRB2 (Crumbs homolog 2) (from UniProt Q5IJ48-1) p.C1129S” to “Human canonical CRB2 (Crumbs homolog 2) (from UniProt Q5IJ48-1) p.G839W”, the ratio to parent falls from 1.2 to 0.94.

“Human canonical CRB2 (Crumbs homolog 2) (from UniProt Q5IJ48-1) p.L777H” and “Human canonical CRB2 (Crumbs homolog 2) (from UniProt Q5IJ48-1) p.N800K” are the same in ratio to parent: 1.1 for the first, 1.1 for the second.

Compared with “Human canonical CRB2 (Crumbs homolog 2) (from UniProt Q5IJ48-1) p.R628C”, “Human canonical CRB2 (Crumbs homolog 2) (from UniProt Q5IJ48-1) p.R633W” is lower in ratio to parent: 0.97 for the first, 0.9 for the second.

Going from “Human canonical CRB2 (Crumbs homolog 2) (from UniProt Q5IJ48-1) p.R1115C” to “Human canonical CRB2 (Crumbs homolog 2) (from UniProt Q5IJ48-1) p.W498C”, the ratio to parent rises from 1 to 1.1.
